Data reported in patent US20220073581A1 (UCB, published 2022).

How the values were obtained:
[1] = molecular target: T1, IL-15-Rα-hFc (R&D Systems) (UniProt Q13261 31-205); experiment: SPR (Biacore), fusion captured from supernatant on anti-human F(ab)2, 100 nM IL-15-Rα injected
T1 construct: Bought reagent; not shown: human Fc (hFc)

[2] = molecular target: T2, IL-2-Rβ (IL-2 receptor β chain, R&D Systems) (UniProt P14784 27-239); experiment: SPR (Biacore), fusion captured from supernatant on anti-human F(ab)2, 100 nM IL-2-Rβ injected
T2 construct: also called IL-2-sRβ
T2 sequence (looked up): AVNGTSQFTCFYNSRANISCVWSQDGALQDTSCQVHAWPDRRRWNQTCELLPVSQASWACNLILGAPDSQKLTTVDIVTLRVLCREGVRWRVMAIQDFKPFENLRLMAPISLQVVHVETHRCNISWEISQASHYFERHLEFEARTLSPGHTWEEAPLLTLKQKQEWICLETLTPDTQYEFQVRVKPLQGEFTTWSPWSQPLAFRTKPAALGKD

[3] = molecular target: T3, Human serum albumin (HSA), Jackson ImmunoResearch catalog #009-000-051 (human, UniProt P02768 25-609); experiment: SPR (Biacore), fusion captured from supernatant on anti-human F(ab)2, 1000 nM HSA injected
IL-6 (R&D Systems) [4] = molecular target: T4, IL-6 (R&D Systems) (UniProt P05231 30-212, limits assumed); experiment: SPR (Biacore), fusion captured on anti-human F(ab)2, 100 nM IL-6 injected alone or with 1000 nM HSA
[5] = molecular target: T5, GM-CSF receptor, cognate for the human GM-CSF constructs (GM-CSF-Ra, R&D Systems) (UniProt P15509 23-320); experiment: SPR (Biacore), fusion captured on anti-human F(ab)2, 100 nM GM-CSF receptor injected
T5 construct: also called cognate GM-CSF receptor
T5 sequence (looked up): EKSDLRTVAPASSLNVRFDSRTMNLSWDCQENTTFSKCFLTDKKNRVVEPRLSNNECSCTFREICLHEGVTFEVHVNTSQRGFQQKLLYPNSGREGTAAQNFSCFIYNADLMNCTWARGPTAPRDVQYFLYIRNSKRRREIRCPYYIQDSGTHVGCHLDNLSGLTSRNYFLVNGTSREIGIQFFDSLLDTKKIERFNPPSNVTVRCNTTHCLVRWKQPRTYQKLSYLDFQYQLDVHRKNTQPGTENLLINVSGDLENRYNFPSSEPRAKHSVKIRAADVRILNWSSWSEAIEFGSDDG

IL-6 (R&D Systems) [6] = molecular target: T4, IL-6 (R&D Systems); experiment: SPR (Biacore), fusion captured on anti-human F(ab)2, IL-6 alone injected
[7] = molecular target: T2, IL-2-Rβ (IL-2 receptor β chain, R&D …); experiment: SPR (Biacore), fusion captured on anti-human F(ab)2, 100 nM IL-2-sRβ injected, with or without premixed 200 nM IL-15
[8] = molecular target: T3, Human serum albumin (HSA), Jackson …; experiment: SPR (Biacore), fusion captured on anti-human F(ab)2, 1000 nM HSA injected alone or with 100 nM G-CSF-Rα
[9] = molecular target: T2, IL-2-Rβ (IL-2 receptor β chain, R&D …); experiment: SPR (Biacore), fusion captured on anti-human F(ab)2, 100 nM IL-2-sRβ injected, with or without premixed 200 nM IL-15; remark: listed apart in the source
[10] = molecular target: T2, IL-2-Rβ (IL-2 receptor β chain, R&D …); experiment: as above; remark: listed apart in the source
[11] = molecular target: T2, IL-2-Rβ (IL-2 receptor β chain, R&D …); experiment: SPR (Biacore), Fab captured on anti-human F(ab)2, IL-2-Rβ injected
[12] = molecular target: T6, EPO-R (EPO receptor, R&D Systems) (UniProt P19235 25-250); experiment: SPR (Biacore), Fab captured on anti-human F(ab)2, EPO-R injected
T6 sequence (looked up): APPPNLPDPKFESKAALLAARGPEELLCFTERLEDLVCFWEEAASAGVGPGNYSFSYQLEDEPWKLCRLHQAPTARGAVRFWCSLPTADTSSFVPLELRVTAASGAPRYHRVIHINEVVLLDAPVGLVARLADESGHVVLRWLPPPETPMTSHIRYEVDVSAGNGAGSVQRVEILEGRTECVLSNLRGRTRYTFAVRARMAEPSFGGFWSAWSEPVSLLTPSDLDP

[13] = molecular target: T7, GM-CSF receptor, cognate for the murine GM-CSF constructs (UniProt Q00941 30-327); experiment: SPR (Biacore), Fab captured on anti-human F(ab)2, GM-CSF receptor injected
T7 construct: also called GM-CSF-Ra; cognate GM-CSF receptor
T7 sequence (looked up): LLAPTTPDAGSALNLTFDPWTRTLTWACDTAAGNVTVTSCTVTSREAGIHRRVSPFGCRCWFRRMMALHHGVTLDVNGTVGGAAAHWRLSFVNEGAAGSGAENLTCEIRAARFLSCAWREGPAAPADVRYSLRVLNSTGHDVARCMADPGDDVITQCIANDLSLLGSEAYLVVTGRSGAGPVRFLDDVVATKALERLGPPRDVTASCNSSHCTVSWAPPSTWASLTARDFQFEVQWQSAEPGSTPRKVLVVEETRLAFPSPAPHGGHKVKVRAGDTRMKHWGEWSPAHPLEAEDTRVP

[14] = molecular target: T5, GM-CSF receptor, cognate for the human …; experiment: as above

B1: CA645/IL-15Fwk3 (CA645 Fab with human IL-15 inserted into framework 3 of the VH domain, original linkers) (Fab)
heavy: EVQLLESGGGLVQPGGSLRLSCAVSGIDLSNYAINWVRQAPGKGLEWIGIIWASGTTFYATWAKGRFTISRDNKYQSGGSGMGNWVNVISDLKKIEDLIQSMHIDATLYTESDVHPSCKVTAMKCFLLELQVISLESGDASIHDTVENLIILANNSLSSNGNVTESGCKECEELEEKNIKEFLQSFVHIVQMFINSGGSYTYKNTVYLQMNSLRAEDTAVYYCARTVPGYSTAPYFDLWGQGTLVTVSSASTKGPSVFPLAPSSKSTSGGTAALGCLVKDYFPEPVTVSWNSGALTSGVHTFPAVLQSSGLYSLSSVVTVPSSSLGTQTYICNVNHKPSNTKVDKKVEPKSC
light: DIQMTQSPSSVSASVGDRVTITCQSSPSVWSNFLSWYQQKPGKAPKLLIYEASKLTSGVPSRFSGSGSGTDFTLTISSLQPEDFATYYCGGGYSSISDTTFGGGTKVEIKRTVAAPSVFIFPPSDEQLKSGTASVVCLLNNFYPREAKVQWKVDNALQSGNSQESVTEQDSKDSTYSLSSTLTLSKADYEKHKVYACEVTHQGLSSPVTKSFNRGEC
notes: Tested as HEK293 supernatant diluted 1 in 5, captured on anti-human F(ab)2; also called CA645/IL-15 antibody fusion protein
[1]
  binding result: binds
[2]
  binding result: binds
[3]
  binding result: binds

B2: CA645/VHH15Fwk3 (CA645 Fab with anti-IL-6 camelid VHH15 inserted into framework 3 of the VH domain) (bispecific antibody)
heavy: EVQLLESGGGLVQPGGSLRLSCAVSGIDLSNYAINWVRQAPGKGLEWIGIIWASGTTFYATWAKGRFTISRDNSGGGGSGGGGSQVQLVESGGGSVQAGGSLRLSCVAASGYTGCTYDMRWYRQAPGKEREFVSGIDSDGRATYADSVKGRFTISQSNAKIAVYLQMDSLKLEDTAMYYCNLQCLRYPGEYYWGQGTQVTVSSGGGGSGGGGSKNTVYLQMNSLRAEDTAVYYCARTVPGYSTAPYFDLWGQGTLVTVSSASTKGPSVFPLAPSSKSTSGGTAALGCLVKDYFPEPVTVSWNSGALTSGVHTFPAVLQSSGLYSLSSVVTVPSSSLGTQTYICNVNHKPSNTKVDKKVEPKSC
light: B1 light
notes: also called CA645/VHH15 antibody fusion protein
IL-6 (R&D Systems) [4]
  binding result: binds

B3: CA645/GM-CSFFwk3 (human) (CA645 Fab with human GM-CSF inserted into framework 3 of the VH domain) (Fab)
heavy: not shown
light: B1 light
notes: also called CA645/hGM-CSF antibody fusion protein
[5]
  binding result: binds

B4: CA645/VHH6Fwk3 (CA645 Fab with camelid VHH6 inserted into framework 3 of the VH domain) (bispecific antibody)
heavy: EVQLLESGGGLVQPGGSLRLSCAVSGIDLSNYAINWVRQAPGKGLEWIGIIWASGTTFYATWAKGRFTISRDNSGGGGSGGGGSDVQFVESGGGSVHAGGSLRLNCATSGYIYSTYCMGWFRQAPGKEREGVAHIYTNSGRTYYADSVKGRFTISQDNAKNTVYLQMNSLKPEDTAIYYCAARPSIRCASFSATEYKDWGQGTQVTVSSGGGGSGGGGSKNTVYLQMNSLRAEDTAVYYCARTVPGYSTAPYFDLWGQGTLVTVSSASTKGPSVFPLAPSSKSTSGGTAALGCLVKDYFPEPVTVSWNSGALTSGVHTFPAVLQSSGLYSLSSVVTVPSSSLGTQTYICNVNHKPSNTKVDKKVEPKSC
light: B1 light
notes: also called CA645/VHH6 antibody fusion protein
IL-6 (R&D Systems) [6]
  binding result: no binding (tested: 100 nM)

B5: CA645/IL-2Fwk3 (CA645 Fab with human IL-2 inserted into framework 3 of the VH domain) (Fab)
heavy: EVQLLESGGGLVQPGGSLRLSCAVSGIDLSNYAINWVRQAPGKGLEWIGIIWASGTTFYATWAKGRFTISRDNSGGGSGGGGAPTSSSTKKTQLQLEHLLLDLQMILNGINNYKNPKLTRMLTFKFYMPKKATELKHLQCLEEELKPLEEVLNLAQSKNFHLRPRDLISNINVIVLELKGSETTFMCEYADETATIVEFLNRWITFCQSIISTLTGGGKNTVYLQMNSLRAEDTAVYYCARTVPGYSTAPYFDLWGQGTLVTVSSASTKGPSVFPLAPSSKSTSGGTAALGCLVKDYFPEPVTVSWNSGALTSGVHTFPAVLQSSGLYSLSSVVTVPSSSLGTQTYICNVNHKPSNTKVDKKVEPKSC
light: B1 light
notes: also called CA645/IL-2 antibody fusion protein
[7]
  binding result: binds

B6: CA645/G-CSFFwk3 (CA645 Fab with human G-CSF inserted into framework 3 of the VH domain) (Fab)
heavy: EVQLLESGGGLVQPGGSLRLSCAVSGIDLSNYAINWVRQAPGKGLEWIGIIWASGTTFYATWAKGRFTISRDNSGGGGSATPLGPASSLPQSFLLKCLEQVRKIQGDGAALQEKLVSECATYKLCHPEELVLLGHSLGIPWAPLSSCPSQALQLAGCLSQLHSGLFLYQGLLQALEGISPELGPTLDTLQLDVADFATTIWQQMEELGMAPALQPTQGAMPAFASAFQRRAGGVLVASHLQSFLEVSYRVLRHLAQPSGGGGKNTVYLQMNSLRAEDTAVYYCARTVPGYSTAPYFDLWGQGTLVTVSSASTKGPSVFPLAPSSKSTSGGTAALGCLVKDYFPEPVTVSWNSGALTSGVHTFPAVLQSSGLYSLSSVVTVPSSSLGTQTYICNVNHKPSNTKVDKKVEPKSC
light: B1 light
notes: also called CA645/G-CSF antibody fusion protein
[8]
  binding result: binds

B7: CA497/IL-15Fwk3 (anti-IL-17A CA497 Fab with human IL-15 inserted into framework 3 of the VH domain) (Fab)
heavy: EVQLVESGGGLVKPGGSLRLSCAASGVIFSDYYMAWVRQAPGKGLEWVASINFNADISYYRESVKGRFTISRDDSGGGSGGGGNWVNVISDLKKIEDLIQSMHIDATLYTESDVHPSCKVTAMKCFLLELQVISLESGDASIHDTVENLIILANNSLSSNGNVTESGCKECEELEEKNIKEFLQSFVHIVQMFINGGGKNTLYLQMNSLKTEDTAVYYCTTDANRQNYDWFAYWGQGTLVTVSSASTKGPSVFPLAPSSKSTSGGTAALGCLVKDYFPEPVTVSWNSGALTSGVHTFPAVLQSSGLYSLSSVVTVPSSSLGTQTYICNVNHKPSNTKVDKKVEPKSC
light: AIQLTQSPSSLSASVGDRVTITCKASESVSSSMYSYMHWYQQKPGKAPKLLIYRASNLESGVPSRFSGSGSGTDFTLTISSLQPEDFATYYCQQSWTAPRTFGQGTKVEIKRTVAAPSVFIFPPSDEQLKSGTASVVCLLNNFYPREAKVQWKVDNALQSGNSQESVTEQDSKDSTYSLSSTLTLSKADYEKHKVYACEVTHQGLSSPVTKSFNRGEC
notes: also called CA497/IL-15 antibody fusion protein
[9]
  binding result: binds

B8: CA240/IL-15Fwk3 (anti-IL-6 CA240 Fab with human IL-15 inserted into framework 3 of the VH domain) (Fab)
heavy: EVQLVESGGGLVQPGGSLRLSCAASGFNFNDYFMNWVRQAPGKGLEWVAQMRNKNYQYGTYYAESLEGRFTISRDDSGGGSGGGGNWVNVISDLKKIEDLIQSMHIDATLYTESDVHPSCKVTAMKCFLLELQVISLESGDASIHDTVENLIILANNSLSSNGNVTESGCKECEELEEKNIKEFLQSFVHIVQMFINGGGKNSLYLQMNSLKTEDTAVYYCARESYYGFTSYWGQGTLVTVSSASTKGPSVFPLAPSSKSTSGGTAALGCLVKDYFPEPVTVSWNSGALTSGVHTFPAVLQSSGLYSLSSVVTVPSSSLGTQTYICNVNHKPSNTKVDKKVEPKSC
light: DIQMTQSPSSLSASVGDRVTITCQASQDIGISLSWYQQKPGKAPKLLIYNANNLADGVPSRFSGSGSGTDFTLTISSLQPEDFATYYCLQHNSAPYTFGQGTKLEIKRTVAAPSVFIFPPSDEQLKSGTASVVCLLNNFYPREAKVQWKVDNALQSGNSQESVTEQDSKDSTYSLSSTLTLSKADYEKHKVYACEVTHQGLSSPVTKSFNRGEC
notes: also called CA240/IL-15 antibody fusion protein
[10]
  binding result: binds

B9: CA645/GM-CSFCH1 (human) (CA645 Fab with human GM-CSF at the C-terminus of CH1, for comparison) (Fab, V domains shown)
VH: EVQLLESGGGLVQPGGSLRLSCAVSGIDLSNYAINWVRQAPGKGLEWIGIIWASGTTFYATWAKGRFTISRDNSKNTVYLQMNSLRAEDTAVYYCARTVPGYSTAPYFDLWGQGTLVTVSS
VL: DIQMTQSPSSVSASVGDRVTITCQSSPSVWSNFLSWYQQKPGKAPKLLIYEASKLTSGVPSRFSGSGSGTDFTLTISSLQPEDFATYYCGGGYSSISDTTFGGGTKVEIKR
notes: also called constant domain (CH1) fusion of the GM-CSF peptide (human)
[5]
  binding result: binds

B10: CA645 Fab (unmodified, wild type, anti-human serum albumin) (Fab, V domains shown)
VH: B9 VH
VL: B9 VL
notes: Control without insert polypeptide; also called unmodified CA645 Fab; wild type CA645 Fab
[11]
  binding result: no binding (tested: 100 nM)
[12]
  binding result: no binding (tested: 50 nM)
[13]
  binding result: no binding (tested: 100 nM)
[14]
  binding result: no binding (tested: 100 nM)
